Measurements reported in the supplement of paper PMC12042874.
± gives the uncertainty stated by the source.

Assay: amyloid nucleation score (Sup35N fusion, yeast selection) (log enrichment); library NNK1; higher = more nucleation; inactive = no reads after selection
Outline: (§1)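 Output and input plasmid inserts were sequenced by Illumina after psi-negative yeast carrying Sup35N fused to peptides of 20 random codons had been induced 24 hours with 100 μM copper sulfate and grown 7 days at 30°C on medium lacking adenine and uracil. The nucleation score is the DiMSum log enrichment of output over input reads, centred on the mode score of non-aggregating sequences. Sequences with under 100 input reads were excluded.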

| Substance | amyloid nucleation score |
| --- | --- |
| WDKWI | 0.418 ± 0.49 |
| TVSMSMAYHVK | 2.27 ± 0.25 |
| EYLFCCVCADLFNTWDKSLG | 7.29 ± 0.052 |
| GFVGFTGF | 0.308 ± 0.77 |
| MYASRNNFNSFTGYRYSSVS | -0.077 ± 0.21 |
| WPGFLSRWIRLRLDWSHEV | -1.06 ± 1.1 |
| NSMANREYGYIELDWV | inactive |
| SLRMLCRLPSRKDRSWTDML | 0.6 ± 0.32 |
| KNNVDSKHS | 0.021 ± 0.52 |
| LDCAKTVVTGVVLGRQLCQN | 0.662 ± 0.39 |
| GPDINSCRSCFSWYIVWFLV | 0.318 ± 0.7 |
| IFVALRRD | -1.29 ± 1.3 |
| QAFISFVVSFRWHLTCRS | 1.18 ± 0.64 |
| GSNDPSVLTAVVLMLLKHRG | 2.04 ± 0.35 |
| LRNIGCKY | 1.01 ± 0.64 |
| SSPDFMFYILNRALA | -0.526 ± 1.4 |
| RYRRFCFALVYMRKNI | -0.184 ± 0.42 |
| RSHAIHVYKQLCHRVVFIWL | 1.39 ± 0.46 |
| QQLALPPWSCLWQ | 0.095 ± 0.49 |
| LVIYVVSDDSVGLTNWRIVA | 3.76 ± 0.065 |
| SLFHLNFTIRWVDHAADSLV | 1.98 ± 0.56 |
| SSYMLWFAIFVRNLNPLVFW | -0.871 ± 0.37 |
| RLDCIHNFALNSYFRIGAWG | -0.215 ± 0.45 |
| ANWFL | 0.479 ± 0.45 |

| Substance | amyloid nucleation score |
| --- | --- |
| GVVACLFFWVRAFFYR | inactive |
| DFSYSNPDFVFLTQYIAYEK | 4.43 ± 0.06 |
| SSSSVVLTRLQPTTGSYEMT | -0.667 ± 1.6 |
| WDALLPLPAEFAYRATTMHA | 0.444 ± 1.1 |
| HLWLFAGYMLLLKPKLKVCT | -0.625 ± 0.41 |
| RLRFLNYTDAG | -1.2 ± 1.5 |
| ICSNGLLIMNVE | 1.13 ± 0.97 |
| RICLLRRGVCTHNVDMVVMY | -0.873 ± 0.68 |
| GVWGQFQVSILWRHKCDLSG | inactive |
| SLWVWRNAWLVHLYRL | -0.206 ± 0.54 |
| CTFILVLHLLHINTDHIMSA | -0.176 ± 1.1 |
| ISYQVLFIDRWGCRSLPCVW | 0.395 ± 0.39 |
| RLPRQYVMG | -0.279 ± 0.66 |
| CDVAVVSFFGMADDPVYRVH | 1.54 ± 0.48 |
| PSRWIAVPSMEVKVL | 0.16 ± 1.1 |
| RHLLSSYRGFLLEQVSASNS | 1.51 ± 0.38 |
| RNLWGCMIWGMRG | 1.83 ± 0.36 |
| LAPALRTETQICRRIHSVQL | 1.62 ± 0.26 |
| LVFTNTLSTIFNNLHCYMWE | 4.49 ± 0.12 |
| NDACYWEFCYADKLYFEWWF | 1.04 ± 0.44 |
| CIYIQYYLNLTVFCRVRLNA | -0.516 ± 1.7 |
| SNEVSGLVCQLTNVVYLLGL | 4.89 ± 0.052 |
| KVLWMSSHLYSATSCCVKRS | 1.82 ± 0.34 |

Assay: amyloid nucleation score (Sup35N fusion, yeast selection) (log enrichment); library NNK2; higher = more nucleation; inactive = no reads after selection
Outline: as §1

| Substance | amyloid nucleation score |
| --- | --- |
| IFRFARSNTYFRGESME | 4.08 ± 0.095 |
| YSAVKCFPYRLPLNYAQIGA | 0.358 ± 0.53 |
| CVLDNGGTYNFRLRRMDHLI | -0.707 ± 0.79 |
| KKLALKVVVSNCFKK | 5.991 ± 0.048 |
| LNRDFMVHLSCGTWPSARKW | 0.067 ± 0.5 |
| LYVFPCHILDDRCFLCGGWF | -0.353 ± 0.38 |
| HNWLSMVQYH | -0.344 ± 0.76 |
| PLMSLLPPPNTR | -0.935 ± 0.44 |
| TSQLSFYKHSLVY | inactive |
| RNSLEFTDTRCNQPGQCESG | 0.641 ± 0.4 |
| FDFLSSFPRLWVRVEGIPCF | -0.994 ± 0.55 |
| SIQCMISWQDRDNVEACKVE | 0.346 ± 0.21 |
| KLPFICINRGWWLVGRINSS | 3.07 ± 0.18 |
| SIYSSGNALTYQRIHNWVGI | -0.953 ± 0.44 |
| SFFMEDQCTRPLVWEVRVFN | 0.049 ± 1.1 |
| STQYPTMVERLS | 1.75 ± 0.3 |
| MGQLDGKACSICRSLVIIVY | 2.23 ± 0.073 |
| QLTQYQSKTRTMCRKQERTV | 1.88 ± 0.43 |
| YLCVYIRLYFMPLRYWKKMC | -0.606 ± 0.44 |
| LLFLAG | -0.358 ± 0.79 |
| IWTTYFMGLRT | -0.394 ± 0.78 |
| VMGYGKRLMSHLGMKSRTRL | 0.468 ± 0.29 |
| SKGRHVMGLGCEGNIWLKEL | -0.377 ± 0.34 |
| TKLLP | -0.149 ± 0.55 |
| LGMCRGLRLIMMDWFGSDKM | 2.35 ± 0.075 |

| Substance | amyloid nucleation score |
| --- | --- |
| SPWKTFMQVLWDTWVARVCL | 0.515 ± 0.28 |
| ILEACREAARPAITFSFFTK | -1.04 ± 1.1 |
| DLFGCFVNCRSRL | 2.89 ± 0.092 |
| FPAQPAVRSRSACWYVLQVR | 0.111 ± 0.49 |
| DKICNYVVGGEVYFSMNHYW | 8.327 ± 0.047 |
| ASSYMRWVEARTRYLACAEN | 4.665 ± 0.046 |
| KFGSWDHSACYSRWYSKSFV | -0.012 ± 1.1 |
| VINSMY | 1.11 ± 0.45 |
| YCALWTTTE | 1.62 ± 0.18 |
| MPGYYPMGSL | 0.427 ± 0.74 |
| SQTMVITFFSRCDVQIVKIN | 5.583 ± 0.03 |
| CSESFGCRTPPSLNMLVCN | -0.729 ± 1.1 |
| SFCKCLVVALVDVWNRCLPW | 4.68 ± 0.051 |
| SSRNASGYAWRVSNCVCVWG | 7.9 ± 0.079 |
| SVFYVSKSSLTPDLDSVFLS | -0.376 ± 0.48 |
| NSRLEVGSNSKQDLMAMSKT | -1.12 ± 0.74 |
| LILGLRGPLPCMLHNSGTYL | 0.19 ± 1.1 |
| HLTAYCMSTHRQACDVDFDF | -0.067 ± 1.1 |
| DWCWAMDLYSFVFHCRLEAF | -0.658 ± 1 |
| VVCEASTCDMLESEWFWAEF | 0.226 ± 0.23 |
| RINVPDVRMDPNYQIHF | -1.02 ± 0.36 |
| IVQLWIWGVVPPFSDISHAL | 7.866 ± 0.05 |
| LQSTILIYVVNFFTTGIMGK | 1.75 ± 0.11 |
| IYVFGIGTYMVTQFLCSTTI | 6.909 ± 0.031 |
| LVKCRGATCLIVTSDRLLYV | inactive |

| Substance | amyloid nucleation score |
| --- | --- |
| GAIDLMDALRCPAKTDTR | 0.811 ± 0.67 |
| LWGFMCFFW | -1.41 ± 0.29 |
| NSPMSKSLNRT | 0.347 ± 0.22 |
| SSIRLFCFTMAHVHMTDSHD | 4.53 ± 0.11 |
| CRGDRFSRSST | -0.217 ± 0.79 |
| NRRGANCVQS | -0.372 ± 0.39 |
| IKWRSFPDSYLENFEFI | -1.6 ± 1.1 |
| EMSGY | inactive |
| LVFTCGWSDTRE | 5.08 ± 0.089 |
| MVIQHIDRPDYWISWGHNKG | 5.112 ± 0.048 |
| ENCFVSICVGSATLGMCSSG | 8.02 ± 0.034 |
| WWDRVRLFRYRLCGSKSLMS | 0.429 ± 0.38 |
| RIRYGLKVCSMVDGMLGRDW | 0.807 ± 0.29 |
| RDLSTGSPILEFHRCTRISG | -0.172 ± 0.76 |
| TCNWGMDG | 0.553 ± 0.62 |
| IQTHSSSWG | -0.288 ± 1 |
| YFLKSYGAFSMFQM | 3.19 ± 0.15 |
| RADTRDSGVVEACKGWSHEE | 0.451 ± 0.34 |
| YWSYSLGGSQEYSGHTMA | -0.135 ± 0.35 |
| SMTTH | -0.777 ± 0.36 |
| VFTFVKERQSTWVVSFPQFL | 4.68 ± 0.066 |
| GVISYMTSRGRGLSNNMSNW | -0.15 ± 0.56 |
| VKALNH | 0.66 ± 0.33 |
| LCWLATRVLSSNDSLYENME | 3.65 ± 0.071 |
| LLIINIEMYRCNRLLYIDNN | 3.15 ± 0.097 |

| Substance | amyloid nucleation score |
| --- | --- |
| TRDSLGRKGYRSAVLTPSMP | 1.29 ± 0.14 |
| ADWQYHSVYMNTVRDKCLAQ | -0.06 ± 0.28 |
| LLRAT | 0.598 ± 0.23 |
| AHCVRVLHIKSRMVVSWESR | 4.19 ± 0.099 |
| LLFQNLIRRLCSMCQFGGCV | -0.531 ± 0.46 |
| LCSMEIWRMRRMMQS | 0.154 ± 0.34 |
| RFRRSVFMLMHGWRSTVFIV | 1.07 ± 0.34 |
| CRSKASSSIRIPT | 0.586 ± 0.81 |
| YKLGVKPMKAG | -0.224 ± 0.79 |
| ILWDTIREVHVHADMDMAPN | -0.782 ± 0.61 |
| VMNHWCNVWSFPWTMVRTHQ | 0.352 ± 0.31 |
| CVMLMCRGDV | 3.87 ± 0.091 |
| GENVVEACLWGQSQASWFIR | -0.009 ± 0.55 |
| PFGGVEAFAGRMWWVEHSYW | 0.009 ± 0.55 |
| CSAITGY | 0.564 ± 0.23 |
| VGKVFLIPGSFYEIRLMTYF | 1.62 ± 0.13 |
| PTRLTVKVMCLKPEPLVWKL | 6.476 ± 0.042 |
| VKNCDWGIYIILSGFMRVTR | -1.27 ± 1.1 |
| GNKMGCLFIGYCGFCTTVRP | 1.74 ± 0.15 |
| LIYITVGRLQHGALCFLGKC | 0.148 ± 1 |
| CDSDSLGVTYVDDDCGYNYC | -1.03 ± 0.55 |
| AYFKYCSSLRGSIRDNRADW | 0.113 ± 0.63 |
| NFNACIPNKDRSFSNVDVCV | -1.35 ± 1 |
| LSKHPYGCVL | 0.862 ± 0.66 |
| YIWYFKMEVDYVLMMYAVAG | 0.183 ± 1 |

| Substance | amyloid nucleation score |
| --- | --- |
| SSSLSWLS | -0.609 ± 0.76 |
| NMFLFLCVRVCGVAFDKGKV | 2.28 ± 0.13 |
| METAPTLNINVSDSQRPNVW | 0.71 ± 0.53 |
| LLFVCVFYVYSSPDNHILAM | -0.633 ± 1.1 |
| LNQNPLFTN | -0.11 ± 0.76 |
| MVYPRYVSDTKQSRLLAGRE | 0.604 ± 0.57 |
| YHCRSEVTCWLEYDG | 0.712 ± 0.28 |
| YIYETTLCYNTIPGL | -0.848 ± 0.29 |
| LFNLKMSPSQRKNGLPVLTI | inactive |
| EHLWYLIREIPNHEFKNKLE | 0.073 ± 0.42 |
| VGSNKGAIIGLMIVGGVVIA | 3.11 ± 0.16 |
| HLSGYKLLIKSVYFE | 3.63 ± 0.067 |
| IVRVIMYLCGNLLVNRWGNA | 0.082 ± 1.1 |
| VLDFLVSCADYSWSLNNCES | -0.91 ± 0.76 |
| CARNTIAWVSNGMEFGSTGG | -0.582 ± 0.76 |
| EDKLFINLSRELVFGKIRPT | 6.138 ± 0.053 |
| GWESGALWVANFLSVRQA | 0.19 ± 0.56 |
| NADQLLIGELQLTLGLWPIR | 1.14 ± 0.16 |
| MSLWRVCCFSWPKKVYSNFR | 1.2 ± 0.1 |
| YIMSFRY | -0.592 ± 0.79 |
| FPASHRVVQV | 5.41 ± 0.065 |
| ISPISLTISLLIGYTSGCLR | 3.15 ± 0.066 |
